Reference: PMC3918441 (Cell reports, 2014)

Assays:
[1] = molecular target: human KDM5D PHD1 finger (human, Zn2+-bound; 15N-labelled); assay: NMR titration
[2] = molecular target: T1, yeast KDM5 PHD finger (S. cerevisiae, Zn2+-bound; 15N-labelled); assay: NMR titration
T1 chain: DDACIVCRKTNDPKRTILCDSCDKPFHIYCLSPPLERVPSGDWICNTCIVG

Q: With ARTKQTARKSTG (peptide, UniProt P68431 2-13, looked up) [H3K4me0 peptide (aa 1-12 of H3)] as the binder, how does the Kd [1] read?
A: 3500 µM

Q: And the Kd [2]?
A: 117 µM
